Positions count from the first letter of the chain named.

The record followed here is patent publication US20220332804A1 (CSL INNOVATION, published 2022).

Common to all, as to test: SPR; KD relative to WT C2;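 also: biacore SPR at 37 °C, anti-C2 mAbs captured on an anti-human IgG chip, alanine or serine C2 surface mutants tested, KD from 1:1 fit compared with wild-type C2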
In general terms: Surface plasmon resonance follows binding to a sensor surface in real time, without labels.

In one test the target is T1, human C2 V465A (human, UniProt P06681 21-752).
T1 sequence: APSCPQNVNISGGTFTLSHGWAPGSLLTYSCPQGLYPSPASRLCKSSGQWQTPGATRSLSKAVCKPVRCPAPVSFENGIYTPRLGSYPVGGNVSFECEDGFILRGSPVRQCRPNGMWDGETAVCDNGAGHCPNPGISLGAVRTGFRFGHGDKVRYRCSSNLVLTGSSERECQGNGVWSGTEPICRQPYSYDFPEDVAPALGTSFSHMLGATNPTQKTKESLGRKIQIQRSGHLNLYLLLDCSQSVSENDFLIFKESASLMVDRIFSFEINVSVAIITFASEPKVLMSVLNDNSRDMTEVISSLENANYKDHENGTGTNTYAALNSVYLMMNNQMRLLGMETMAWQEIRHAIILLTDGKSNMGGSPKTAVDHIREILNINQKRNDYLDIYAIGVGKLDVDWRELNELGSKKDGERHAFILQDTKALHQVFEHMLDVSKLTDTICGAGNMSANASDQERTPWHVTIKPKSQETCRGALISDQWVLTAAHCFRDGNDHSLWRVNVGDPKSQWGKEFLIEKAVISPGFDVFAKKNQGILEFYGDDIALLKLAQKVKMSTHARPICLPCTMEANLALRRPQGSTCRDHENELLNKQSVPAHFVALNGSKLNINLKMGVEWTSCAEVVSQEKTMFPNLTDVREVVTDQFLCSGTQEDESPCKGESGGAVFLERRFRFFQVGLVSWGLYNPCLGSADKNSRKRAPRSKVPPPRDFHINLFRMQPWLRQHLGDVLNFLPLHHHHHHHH

The target in another test is T2, human C2 K430A (human, UniProt P06681 21-752).
T2 sequence: T1 sequence with K410A, A445V

In another test the target is T3, human C2 I438A (human, UniProt P06681 21-752).
T3 sequence: T1 sequence with I418A, A445V

The next test has as its target T4, human C2 L620A (human, UniProt P06681 21-752).
T4 sequence: T1 sequence with A445V, L600A

B1: RF16-214 (antibody, V domains shown)
VH: EVQLLESGGGLVQPGGSLRLSCAASGFTFSWYQMMWVRQAPGKGLEWVSRIYPSGGGTAYADSVKGRFTISRDNSKNTLYLQMNSLRAEDTAVYYCARDAGYGDNWGQGTLVTVSS
VL: QSALTQPPSVSVSPGQTASITCSGDKLGEKYASWYQQKAGQSPVMVIYQDRKRPSGIPERFSGSNSGNTATLTISGTQAMDEADYYCQAWDTRAVVFGGGTKLTVLG
On to B1, for which the Fold diff was determined as 2 fold with human C2 V465A, 10 fold with human C2 K430A, 1 fold in the test with human C2 I438A and 1 fold with human C2 L620A.
